How the values were obtained:
[1] = biological target: T1, PD-1 shown on cells (Raji-PD-1 cells); CD3/CD28 activated human CD8+ T cells; PD-1 effector cells of the … (human, UniProt Q15116 25-288); assay: flow cytometry on CD3+CD8+ T cells within CD3/CD28 activated human PBMCs, 1 h at 4 C, anti-human IgG PE, % anti-hIgG+; table CD8+ T cells under the graph
T1 construct: whole, on cells; Human is stated for the PBMCs; also called hPD-1; PD1 expressing Raji cells
Protocol: Mixed donor lots of human peripheral blood mononuclear cells (PBMCs) were thawed and seeded in medium (RPMI1640, 10% fetal bovine serum (FBS), 2 mM 1-Glutamine, 50 U/mL penicillin, 50 μg/mL streptomycin, 1 μM each of non-essential amino acids, 10 mM HEPES, 1 mM sodium pyruvate, 55 μM B-mercaptoethanol, 10 μg/mL gentamycin) into tissue culture treated plates that were coated for 1 h at 37° C. with 1 μg/ml anti-CD3. Anti-CD28 was added in solution at a concentration of 5 μg/ml. Two days later the PBMCs were collected and transferred into a 96 well v-bottom plate at 100,000 cells per well in FACS Buffer (2% FBS in phosphate buffered saline (PBS)). Test articles were diluted to twice the indicated concentration in FACS buffer. Test articles were added to cells at a 1:1 ratio to the final concentration indicated in the figure and incubated for 1 h at 4° C. The cells were washed three times with FACS buffer and fixed in 4% PFA. Cells were then washed once in FACS buffer. All cells were stained in 100 μL of indicated molecules in FACS buffer for 1 h at 4° C. The cells were washed three times with FACS buffer and fixed in 4% paraformaldehyde (PFA). All cells were subsequently stained in 100 μL with anti-human IgG PE, anti-CD3 PE/Dazzle 594, anti-CD45 PerCP Cy5.5, anti-CD8 BV510, and anti-CD4 BV421 for 30 minutes. Cells were washed twice to remove unbound antibody and analyzed on the BD Celesta by gating on CD3+CD8+ T cells.

[2] = biological target: PD-1 (antigen of the ELISA and of the in vitro affinity measurement) (UniProt Q15116 25-167, limits assumed); assay: kinetic binding table: TC3 captured as ligand (capture level 78.1 RU), hPD1-his as sample; method not given
Chain of PD-1 (antigen of the ELISA and of the in vitro affinity measurement) (Q15116 25-167 limits assumed): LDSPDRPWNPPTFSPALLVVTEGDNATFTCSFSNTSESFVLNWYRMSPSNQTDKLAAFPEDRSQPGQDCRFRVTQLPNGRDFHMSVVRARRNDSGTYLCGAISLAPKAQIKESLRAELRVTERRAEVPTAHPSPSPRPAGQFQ

T1 sequence (Q15116 25-288): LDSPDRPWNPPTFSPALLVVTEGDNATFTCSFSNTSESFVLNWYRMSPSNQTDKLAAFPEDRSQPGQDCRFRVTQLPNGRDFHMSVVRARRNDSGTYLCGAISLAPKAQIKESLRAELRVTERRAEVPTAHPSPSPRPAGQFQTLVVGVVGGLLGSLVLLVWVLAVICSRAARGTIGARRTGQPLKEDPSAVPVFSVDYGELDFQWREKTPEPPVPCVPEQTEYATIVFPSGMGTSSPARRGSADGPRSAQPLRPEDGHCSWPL

| Binder | EC50 [1] | Kd [2] | koff [2] | kon [2] |
| --- | --- | --- | --- | --- |
| TC3 (Fc fusion, Bivalent anti-PD-1 Fab) heavy 1: QVQLVQSGVEVKKPGASVKVSCKASGYTFTNYYMYWVRQAPGQGLEWMGGINPSNGGTNFNEKFKNRVTLTTDSSTTTAYMELKSLQFDDTAVYYCARRDYRFDMGFDYWGQGTTVTVSSASTKGPSVFPLAPSSKSTSGGTAALGCLVKDYFPEPVTVSWNSGALTSGVHTFPAVLQSSGLYSLSSVVTVPSSSLGTQTYICNVNHKPSNTKVDKKVEPKSCDKTHTCPPCPAPELLGGPSVFLFPPKPKDTLMISRTPEVTCVVVDVSHEDPEVKFNWYVDGVEVHNAKTKPREEQYASTYRVVSVLTVLHQDWLNGKEYKCKVSNKALPAPIEKTISKAKGQPREPQVYTLPPCRDELTKNQVSLWCLVKGFYPSDIAVEWESNGQPENNYKTTPPVLDSDGSFFLYSKLTVDKSRWQQGNVFSCSVMHEALHNRFTQKSLSLSPGGGSSPPGGGSSGGGSGPAPTSSSTKKTQLQLEHLLLDLQMILNGINNYKNPKLTAMLTAKFAMPKKATELKHLQCLEEALKPLEEVLNLAQSKNFHLRPRDLISNINVIVLELKGSETTFMCEYADETATIVEFLNRWITFAQSIISTLT heavy 2: QVQLVQSGVEVKKPGASVKVSCKASGYTFTNYYMYWVRQAPGQGLEWMGGINPSNGGTNFNEKFKNRVTLTTDSSTTTAYMELKSLQFDDTAVYYCARRDYRFDMGFDYWGQGTTVTVSSASTKGPSVFPLAPSSKSTSGGTAALGCLVKDYFPEPVTVSWNSGALTSGVHTFPAVLQSSGLYSLSSVVTVPSSSLGTQTYICNVNHKPSNTKVDKKVEPKSCDKTHTCPPCPAPELLGGPSVFLFPPKPKDTLMISRTPEVTCVVVDVSHEDPEVKFNWYVDGVEVHNAKTKPREEQYASTYRVVSVLTVLHQDWLNGKEYKCKVSNKALPAPIEKTISKAKGQPREPQVCTLPPSRDELTKNQVSLSCAVKGFYPSDIAVEWESNGQPENNYKTTPPVLDSDGSFFLVSKLTVDKSRWQQGNVFSCSVMHEALHNHYTQKSLSLSPGGPPSGSSPMPYDLYHPSGGGAVNGTSQFTCFYNSRANISCVWSQDGALQDTSCQVHAWPDRRRWNQTCELLPVSQASWACNLILGAPDSQKLTTVDIVTLRVLCREGVRWRVMAIQDFKPFENLRLMAPISLQVVHVETHRSNISWEISQASHYFERHLEFEARTLSPGHTWEEAPLLTLKQKQEWISLETLTPDTQYEFQVRVKPLQGEFTTWSPWSQPLAFRTKPAALGKD light: EIVLTQSPATLSLSPGERATLSCRASKGVSTSGYSYLHWYQQKPGQAPRLLIYLASYLESGVPARFSGSGSGTDFTLTISSLEPEDFAVYYCQHSRDLPLTFGGGTKVEIKRTVAAPSVFIFPPSDEQLKSGTASVVCLLNNFYPREAKVQWKVDNALQSGNSQESVTEQDSKDSTYSLSSTLTLSKADYEKHKVYACEVTHQGLSSPVTKSFNRGEC | 0.1 nM | 7.11 nM | 0.00328 s⁻¹ | 461000 M⁻¹ s⁻¹ |
| TC24 (Fc fusion, Mask CD122 (C122S, C168S)) heavy 1: QVQLVQSGVEVKKPGASVKVSCKASGYTFTNYYMYWVRQAPGQGLEWMGGINPSNGGTNFNEKFKNRVTLTTDSSTTTAYMELKSLQFDDTAVYYCARRDYRFDMGFDYWGQGTTVTVSSASTKGPSVFPLAPSSKSTSGGTAALGCLVKDYFPEPVTVSWNSGALTSGVHTFPAVLQSSGLYSLSSVVTVPSSSLGTQTYICNVNHKPSNTKVDKKVEPKSCDKTHTCPPCPAPELLGGPSVFLFPPKPKDTLMISRTPEVTCVVVDVSHEDPEVKFNWYVDGVEVHNAKTKPREEQYASTYRVVSVLTVLHQDWLNGKEYKCKVSNKALPAPIEKTISKAKGQPREPQVYTLPPCRDELTKNQVSLWCLVKGFYPSDIAVEWESNGQPENNYKTTPPVLDSDGSFFLYSKLTVDKSRWQQGNVFSCSVMHEALHNRFTQKSLSLSPGGGSSPPGGGSSGGGSGPAPTSSSTKKTQLQLEHLLLDLQMILNGINNYKNPKLTAMLTAKFAMPKKATELKHLQCLEEALKPLEEVLNLAQSKNFHLRPRDLISNINVIVLELKGSETTFMCEYADETATIVEFLNRWITFAQSIISTLT heavy 2: QVQLVQSGVEVKKPGASVKVSCKASGYTFTNYYMYWVRQAPGQGLEWMGGINPSNGGTNFNEKFKNRVTLTTDSSTTTAYMELKSLQFDDTAVYYCARRDYRFDMGFDYWGQGTTVTVSSASTKGPSVFPLAPSSKSTSGGTAALGCLVKDYFPEPVTVSWNSGALTSGVHTFPAVLQSSGLYSLSSVVTVPSSSLGTQTYICNVNHKPSNTKVDKKVEPKSCDKTHTCPPCPAPELLGGPSVFLFPPKPKDTLMISRTPEVTCVVVDVSHEDPEVKFNWYVDGVEVHNAKTKPREEQYASTYRVVSVLTVLHQDWLNGKEYKCKVSNKALPAPIEKTISKAKGQPREPQVCTLPPSRDELTKNQVSLSCAVKGFYPSDIAVEWESNGQPENNYKTTPPVLDSDGSFFLVSKLTVDKSRWQQGNVFSCSVMHEALHNHYTQKSLSLSPGGGSSGPVPLSLYSGSGGGAVNGTSQFTCFYNSRANISCVWSQDGALQDTSCQVHAWPDRRRWNQTCELLPVSQASWACNLILGAPDSQKLTTVDIVTLRVLCREGVRWRVMAIQDFKPFENLRLMAPISLQVVHVETHRSNISWEISQASHYFERHLEFEARTLSPGHTWEEAPLLTLKQKQEWISLETLTPDTQYEFQVRVKPLQGEFTTWSPWSQPLAFRTKPAALGKD light: EIVLTQSPATLSLSPGERATLSCRASKGVSTSGYSYLHWYQQKPGQAPRLLIYLASYLESGVPARFSGSGSGTDFTLTISSLEPEDFAVYYCQHSRDLPLTFGGGTKVEIKRTVAAPSVFIFPPSDEQLKSGTASVVCLLNNFYPREAKVQWKVDNALQSGNSQESVTEQDSKDSTYSLSSTLTLSKADYEKHKVYACEVTHQGLSSPVTKSFNRGEC | 0.1 nM |  |  |  |
| TC47 (Fc fusion, Mask CD122 (C122A, N123C)) heavy 1: QVQLVQSGVEVKKPGASVKVSCKASGYTFTNYYMYWVRQAPGQGLEWMGGINPSNGGTNFNEKFKNRVTLTTDSSTTTAYMELKSLQFDDTAVYYCARRDYRFDMGFDYWGQGTTVTVSSASTKGPSVFPLAPSSKSTSGGTAALGCLVKDYFPEPVTVSWNSGALTSGVHTFPAVLQSSGLYSLSSVVTVPSSSLGTQTYICNVNHKPSNTKVDKKVEPKSCDKTHTCPPCPAPELLGGPSVFLFPPKPKDTLMISRTPEVTCVVVDVSHEDPEVKFNWYVDGVEVHNAKTKPREEQYASTYRVVSVLTVLHQDWLNGKEYKCKVSNKALPAPIEKTISKAKGQPREPQVYTLPPCRDELTKNQVSLWCLVKGFYPSDIAVEWESNGQPENNYKTTPPVLDSDGSFFLYSKLTVDKSRWQQGNVFSCSVMHEALHNRFTQKSLSLSPGGGSSPPGGGSSGGGSGPAPTSSSTKKTQLQLEHLLLDLQMILNGINNYKNPKLTAMLTAKFAMPKKATELKHLQCLEEALKPLEEVLNLAQSKNFHLRPRDLISNINVIVLELKGSETTFMCEYADETATIVEFLNRWITFAQSIISTLT heavy 2: QVQLVQSGVEVKKPGASVKVSCKASGYTFTNYYMYWVRQAPGQGLEWMGGINPSNGGTNFNEKFKNRVTLTTDSSTTTAYMELKSLQFDDTAVYYCARRDYRFDMGFDYWGQGTTVTVSSASTKGPSVFPLAPSSKSTSGGTAALGCLVKDYFPEPVTVSWNSGALTSGVHTFPAVLQSSGLYSLSSVVTVPSSSLGTQTYICNVNHKPSNTKVDKKVEPKSCDKTHTCPPCPAPELLGGPSVFLFPPKPKDTLMISRTPEVTCVVVDVSHEDPEVKFNWYVDGVEVHNAKTKPREEQYASTYRVVSVLTVLHQDWLNGKEYKCKVSNKALPAPIEKTISKAKGQPREPQVCTLPPSRDELTKNQVSLSCAVKGFYPSDIAVEWESNGQPENNYKTTPPVLDSDGSFFLVSKLTVDKSRWQQGNVFSCSVMHEALHNHYTQKSLSLSPGGGSSGPVPLSLYSGSGGGAVNGTSQFTCFYNSRANISCVWSQDGALQDTSCQVHAWPDRRRWNQTCELLPVSQASWACNLILGAPDSQKLTTVDIVTLRVLCREGVRWRVMAIQDFKPFENLRLMAPISLQVVHVETHRACISWEISQASHYFERHLEFEARTLSPGHTWEEAPLLTLKQKQEWICLETLTPDTQYEFQVRVKPLQGEFTTWSPWSQPLAFRTKPAALGKD light: EIVLTQSPATLSLSPGERATLSCRASKGVSTSGYSYLHWYQQKPGQAPRLLIYLASYLESGVPARFSGSGSGTDFTLTISSLEPEDFAVYYCQHSRDLPLTFGGGTKVEIKRTVAAPSVFIFPPSDEQLKSGTASVVCLLNNFYPREAKVQWKVDNALQSGNSQESVTEQDSKDSTYSLSSTLTLSKADYEKHKVYACEVTHQGLSSPVTKSFNRGEC | 0.1 nM |  |  |  |

Reference: US20230365641A1 (XILIO DEVELOPMENT, published 2023)
